EC50, binding result and Kd data for one molecule are collected here from CN116253795A (SUN YAT SEN UNIV CANCER CENTER SUN YAT SEN UNIV AFFILIATED …, dated 2023).

Assay [1] deals with T1, gHgL胞外域全长蛋白 (recombinant single-chain EBV gL-linker-gH ectodomain with 6xHis, SEQ ID NO.12) (Epstein-Barr virus, M81 strain …).
T1 construct: not shown: 6xHis tag
As to the kind of experiment: ELISA, gHgL protein coated at 2 ug/mL, antibody titrated. Background: ELISA stands for enzyme-linked immunosorbent assay.

Assay [2] concerns the target T2, P9肽 (biotinylated 20-mer peptide of gL, aa 104-123) (Epstein-Barr virus, M81 strain, N-terminal biotin).
T2 peptide: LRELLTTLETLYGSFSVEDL
Briefly: ELISA, biotinylated peptide on streptavidin plate, antibody 1 ug/mL.

Assay [3] addresses T1, gHgL胞外域全长蛋白 (recombinant single-chain …). As to the kind of experiment: SPR, Biacore 8K, antibody captured on Protein A chip, gHgL as analyte 3.125-200 nM.

B1: 兔源单克隆抗体10E4 (rabbit monoclonal antibody 10E4) (antibody, V domains shown)
VH: QQVKESGGRLVTPGTPLTLTCTASGFSLSTYWMSWVRQAPGKGLEYIGVIGGSGSTYYASWAKGRFTISKTSTTVDLKITSPTTEDTATYFCARDSGAGVRFRFWGPGTLVTVSS
VL: DLVMTQTPASVEAGVGGTVTINCQASENIGSRLAWYQQKPGQPPKLLIYRASTLESGVPSRFKGSGSGTEFTLTISDLECADAATYYCQCTYGVSITINYGNDFGGGTEVVVKG
notes: also called 单抗10E4
As usually defined, the EC50 is the concentration that produces a half-maximal response. In general, Kd refers to the equilibrium constant for the complex coming apart. As for B1, in assay [1], the EC50 came to 0.0335 µg/mL. In addition, the binding result in assay [2] is “binds”. Also, in assay [3], the Kd amounted to 3.53 nM.
